Test results published in patent publication US12715909 (ENTHERA S R L, dated 2026).

T1: human IGFBP1 (human, UniProt P08833 26-259)
T1 construct: Bought protein
T1 sequence (looked up): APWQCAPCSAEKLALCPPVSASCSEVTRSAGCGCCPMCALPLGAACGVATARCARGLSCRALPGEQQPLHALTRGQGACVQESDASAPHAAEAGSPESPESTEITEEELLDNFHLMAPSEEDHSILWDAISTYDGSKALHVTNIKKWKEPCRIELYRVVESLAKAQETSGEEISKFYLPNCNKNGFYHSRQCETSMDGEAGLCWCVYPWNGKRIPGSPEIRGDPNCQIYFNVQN

T2: human IGFBP2 (human, UniProt P18065 37-325, limits assumed)
T2 construct: Bought protein
T2 sequence (looked up): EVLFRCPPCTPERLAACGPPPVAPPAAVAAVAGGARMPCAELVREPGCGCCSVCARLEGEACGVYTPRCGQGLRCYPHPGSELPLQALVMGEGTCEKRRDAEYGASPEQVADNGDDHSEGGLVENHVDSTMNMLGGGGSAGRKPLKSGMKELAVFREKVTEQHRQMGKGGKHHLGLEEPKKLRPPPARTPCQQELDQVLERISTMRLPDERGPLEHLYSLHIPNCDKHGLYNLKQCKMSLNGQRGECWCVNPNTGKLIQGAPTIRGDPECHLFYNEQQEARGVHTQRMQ

T3: human IGFBP4 (human, UniProt P22692 22-258)
T3 construct: Bought protein
T3 sequence (looked up): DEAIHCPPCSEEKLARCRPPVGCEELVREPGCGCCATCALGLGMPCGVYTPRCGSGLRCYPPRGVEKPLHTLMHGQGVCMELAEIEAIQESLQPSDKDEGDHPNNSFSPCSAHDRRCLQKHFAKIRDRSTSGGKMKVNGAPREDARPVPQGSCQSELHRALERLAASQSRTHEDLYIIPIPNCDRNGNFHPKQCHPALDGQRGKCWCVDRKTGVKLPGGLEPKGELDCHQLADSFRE

T4: human IGFBP6 (human, UniProt P24592 28-240, limits assumed)
T4 construct: Bought protein
T4 sequence (looked up): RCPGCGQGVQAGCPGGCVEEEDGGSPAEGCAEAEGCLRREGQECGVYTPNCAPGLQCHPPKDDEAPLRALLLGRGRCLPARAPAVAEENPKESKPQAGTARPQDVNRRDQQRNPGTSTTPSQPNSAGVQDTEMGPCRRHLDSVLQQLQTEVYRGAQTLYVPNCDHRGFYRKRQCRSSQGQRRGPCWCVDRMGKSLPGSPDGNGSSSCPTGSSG


How the values were obtained:
human IGFBP5 [1] = target: T5, human IGFBP5 (human, UniProt P24593 21-272); experiment: ELISA, scFv, secondary screening
T5 construct: Bought protein; in BLI it was in solution; also called hIGFBP-5
Experimental: (§1) At the end of the discovery process, each selection output was screened for antigen-specific antibodies and the binding characteristics of monoclonal antibody clones was analysed. For this purpose, 3072 single colonies were used for scFv antibody production. […] 192 of those ELISA positive clones were selected for a secondary screening. For that purpose, a second batch of scFv were produced and tested on a broader panel of antigens: Streptavidin+biotinylated human IGFBP5, Streptavidin+biotinylated murine IGFBP5, Streptavidin, BSA, Human IGFBP1, Human IGFBP2, Human IGFBP3, Human IGFBP4, Human IGFBP5 and Human IGFBP6. […] Binding to human IGFBP1, human IGFBP2, human IGFBP3, human IGFBP4 and human IGFBP6 was not detected. […] The scFv DNA sequence was amplified by PCR and cloned into YUMAB's mammalian scFv-Fc expression vector, resulting in a genetic fusion of the scFv with a human IgG4 Fc. Bacterial clones with a correctly cloned scFv gene were used for isolation of transfection grade DNA. The DNA was used for the transient transfection of HEK cells which produced and secreted the antibody into the culture medium. The antibodies were purified by affinity chromatography (Protein A) and re-buffered in PBS. The protein concentration was determined by UV/VIS spectrometry and purity was checked by Coomassie staining. 13 of the 15 antibodies could be successfully produced in the scFv-Fc format.

mouse IGFBP5 [2] = target: T6, mouse IGFBP5 (mouse, UniProt Q07079 20-271); experiment: ELISA, scFv, secondary screening
T6 construct: Bought protein; in solution in BLI; also called mIGFBP-5; murine IGFBP5
Experimental: as §1

human IGFBP1 = target: T1, human IGFBP1; experiment: ELISA, scFv, secondary screening
Experimental: as §1

human IGFBP2 = target: T2, human IGFBP2; experiment: ELISA, scFv, secondary screening
Experimental: as §1

human IGFBP3 = target: T7, human IGFBP3 (human, UniProt P17936 28-291); experiment: ELISA, scFv, secondary screening
T7 construct: Bought protein
Experimental: as §1

human IGFBP4 = target: T3, human IGFBP4; experiment: ELISA, scFv, secondary screening
Experimental: as §1

human IGFBP6 = target: T4, human IGFBP6; experiment: ELISA, scFv, secondary screening
Experimental: as §1

human IGFBP5 [3] = target: T5, human IGFBP5; experiment: BLI (Octet/BLItz), mAb captured via Fc on AHC biosensor, antigen in solution
Experimental: (§2) To assess the binding affinity in more detail, affinity measurements were performed using Biomolecular Interaction Analysis performed by an Octet platform (BLItz System), which is a Biolayer Interferometry (BLI) platform. To establish the assay, the target monoclonal antibody (mAb, 2 identical antigen binding moieties, 2 μg/ml in 1% BSA containing 0.05% Tween 20) was immobilized via Fc on the via AHC biosensor and the interaction with the antigen human IGFBP5 (R&D, cat n° 875-B5) and mouse IGFBP5 (R&D, cat n° 578-B5) at different concentration were measured.

mouse IGFBP5 [4] = target: T6, mouse IGFBP5; experiment: as above
Experimental: as §2

T6 sequence (Q07079 20-271 limits assumed): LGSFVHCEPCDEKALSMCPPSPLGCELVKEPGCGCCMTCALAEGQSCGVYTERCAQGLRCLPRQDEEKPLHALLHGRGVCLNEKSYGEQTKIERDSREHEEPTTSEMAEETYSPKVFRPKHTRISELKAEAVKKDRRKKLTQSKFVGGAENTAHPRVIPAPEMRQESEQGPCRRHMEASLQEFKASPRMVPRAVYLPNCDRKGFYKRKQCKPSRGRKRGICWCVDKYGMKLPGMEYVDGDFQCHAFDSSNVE
T7 sequence (P17936 28-291 limits assumed): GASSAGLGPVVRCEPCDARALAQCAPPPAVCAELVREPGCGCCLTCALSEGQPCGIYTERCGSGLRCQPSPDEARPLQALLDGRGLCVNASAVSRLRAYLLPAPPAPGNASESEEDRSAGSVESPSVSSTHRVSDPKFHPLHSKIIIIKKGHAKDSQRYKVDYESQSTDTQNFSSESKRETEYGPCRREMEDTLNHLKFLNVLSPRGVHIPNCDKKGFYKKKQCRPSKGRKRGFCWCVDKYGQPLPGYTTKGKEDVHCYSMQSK
T5 sequence (P24593 21-272 limits assumed): as the sequence (Q07079 20-271 limits assumed) above, with G87R, T90V, V116I, V157I, P159S, F183L, A245T counted along it

Binder | binding result (human IGFBP5 [1]) | binding result (mouse IGFBP5 [2]) | binding result (human IGFBP1) | binding result (human IGFBP2) | binding result (human IGFBP3) | binding result (human IGFBP4) | binding result (human IGFBP6) | Kd (human IGFBP5 [3]) | Kd (mouse IGFBP5 [4])
D12 scFv (scFv, V domains shown, scFv as screened by ELISA) VH: not shown VL: ETTLTQSPGTLSVSPGDRATLSCRASQSLSADYLAWYQQKPGQAPRLLIYGASTRATGIPARFSGSGSGTEFTLTVSSLQSEDFAVYYCQQNDNWPYTFGQGTKLEIK | binds | binds | no binding | no binding | no binding | no binding | no binding | – | –
E02 scFv (scFv, V domains shown, scFv as screened by ELISA) VH: QMQLVQSGAEVKKPGSSVKVSCKASGGTFSSYAISWVRQAPGQGLEWMGGIIPIFGTANYAQKFQGRVTITADESTSTAYMELSSLRSEDTAVYYCATMSVAGPSISFDYWGQGTLVTVSS VL: DIQMTQSPSSLSASVGDRVAIPCRASQSISSYLNWYQQKPGKAPKLLIYAASSLQRGVPSRFSGSGSGTDFTLTISSLQPEDFATYYCQETYSNLWTFGQGTKVEIK | binds | binds | no binding | no binding | no binding | no binding | no binding | – | –
E03 scFv (scFv, V domains shown, scFv as screened by ELISA) VH: QVQLVQSGAEVKKPGSSVKVSCKASGGTFSSYAISWVRQAPGQGLEWMGGITPIFGTANYAQKFQGRVTITADESTSTAYMELSSLRSEDTAVYYCARAGILTGYYFDYWGQGTLVTVSS VL: NFMLTQPHSVSESPGKTVTISCTRSSGSIASNYVQWYQQRPGSSPTTVIYEDNQRPSGVPDRFSGSIDSSSNSASLTISGLKTEDEADYYCQSYDSSNRPWVFGGGTKLTVL | binds | binds | no binding | no binding | no binding | no binding | no binding | – | –
E05 scFv (scFv, V domains shown, scFv as screened by ELISA) VH: EVQLVESGGGLVQPGGSLKLSCAASGFTFSGYGMNWVRQAPGKGLEWVSYVGSSSSTIYYADSVKGRFTISRDNANNSLYLQMNSLRAEDTAVYYCARGLGGNWGQGTMVTVSS VL: QPGLTQPPSASGAPGQRVTISCSGSRSNIGSNYVHWYQQLPGTAPKLIIYRNDQRPSGVPARFSASKSGTSASLAISGLRSEDEADYYCAAWDDGLSVLFGGGTKLTVL | binds | binds | no binding | no binding | no binding | no binding | no binding | – | –
F04 scFv (scFv, V domains shown, scFv as screened by ELISA) VH: not shown VL: SSELTQDPSVSVALGQTVTITCQGDSVRKYYTNWYQQKPGQAPILVLYGKNYRPSGIPDRFSGSTSGDTAYLTITGAQAEDAADYYCHSRDTSDIHLNVFGTGTKVTVL | binds | binds | no binding | no binding | no binding | no binding | no binding | – | –
A09 scFv (scFv, V domains shown) VH: QVQLVESGAEVKKPGASVKVSCKASGYTFTSYGISWVRQAPGQGLEWMGWISAYNGNTNYAQKLQGRVTMTTDTSTSTAYMELRSLRSDDTAVYYCAREWELLGGLDYWGQGTLVTVSS VL: QSALTQPASVSGSPGQSITISCTGTSSDVGGYNYVSWYQQHPGKAPKLMIYEVSNRPSGVSNRFSGSKSGNTASLTISGLQAEDEADYYCSSYTSSSTVVFGGGTKLTVL | binds | binds | no binding | no binding | no binding | no binding | no binding | – | –
G01 scFv (scFv, V domains shown, scFv as screened by ELISA) VH: QVQLVQSGAEVKKPGSSVKVSCKASGGTFSSYAISWVRQAPGQGLEWMGGIIPIFGTANYAQKFQGRVTITADESTSTAYMELSSLRSEDTAVYYCASITEGAFDYWGQGTLVTVSS VL: AIQLTQSPSTLSASVGDRVTITCRASRTVGSWLAWYQQKPGKAPKLLIYDASNLQSGVPSRFSGSGSGTEFTLTISSLQPDDLSTYYCQQYNSSPYTFGQGTKVEIK | binds | binds | no binding | no binding | no binding | no binding | no binding | – | –
B09 full length mAb (antibody, V domains shown, also called anti-IGFBP5 mAb B09) VH: QVQLVQSGAEVKKPGASVKVSCKASGYTFTSYGISWVRQAPGQGLEWMGWISAYNGNTNYAQKLQGRVTMTTDTSTSTAYMELRSLRSDDTAVYYCARDLAVGTHGDYWGQGTLVTVSS VL: QSALTQPASVSGSPGQSITISCTGTSSDVGGYNYVSWYQQHPGKAPKLMIYEVSNRPSGVSNRFSGSKSGNTASLTISGLQAEDEADYYCSSYTSSSTLEVVFGGGTKLTVL | – | – | – | – | – | – | – | 0.1 nM | 0.1 nM
